32 sequences from the supplement of paper PMC9170038 can be followed below.

The test system of this series is MS2 coat protein. The series is described as follows: apparent KD of MS2 coat protein; designed switch direction (-1 OFF switch, 1 ON switch): -1; higher = weaker reporter binding. The gist of the method: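 RNA switches sharing common flanks were transcribed by stalled E. coli RNA polymerase on Illumina chips. A doubling series of SNAP-549-labelled MS2 coat protein, from 0.7 or 1.5 nM to 3 µM, was applied in Tris-HCl pH 7.5 buffer with KCl, MgCl2, BSA, DTT, tRNA and Tween-20. Each step lasted 0.8–1.5 h at the bottom of the series and 10–20 min at the top. Normalised cluster fluorescence was curve-fitted, giving apparent KD as the per-design median over clusters.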

The mark [1] stands for this setting: input ligand: microRNA oligo, concentration not stated.
Where [2] appears, read: Eterna round: R95, input ligand: FMN 200 uM.
Setting [3] is: Eterna round: R95, input ligand: microRNA oligo, concentration not stated.
The mark [4] stands for this setting: Eterna round: R95, input ligand: none.

With “GAUCAUGCAGGAUAUACAGUAUCCAUGAAAACAUGGAUCAAACAUGAGGAUCACCCAUGUAGAAGGGCAUGAUC [Omei Ex2 A23] (Eterna round: R97, puzzle: Exclusion 2)”, the “apparent KD of MS2 coat protein” value is, setting by setting: (input ligand: FMN 200 uM) 0.0191 µM; (input ligand: none) 0.0179 µM.

On to “UGUCAGAUGGUAGGAUAUCCAUAUCGAGUGACCCUUUCAUAACAUGAGGAUCACCCAUGUCGGUGGGAGAAGGGCUGUAUGGUG [salish99_ExNG02_R04_025] (Eterna round: R96, puzzle: Exclusion NG 2)”, for which the “apparent KD of MS2 coat protein” value by setting is: (input ligand: FMN 200 uM) 0.0268 µM; under setting [1], 0.0191 µM; (input ligand: none) 0.0246 µM.

Take “AGUACUAACACGUAUGUGUUAGUACAAUAAGCUUGUGAAACAUGAGGAUCACCCAUGUCCUCAUAAGCUCGUCUUAU [salish99_TOv2_r3_066] (puzzle: Sensor v3, turn-off variant 2)”: the “apparent KD of MS2 coat protein” value turned out to be 0.0181 µM under setting [2], 0.764 µM under setting [3] and 0.015 µM under setting [4].

As for “UGCAGACGAGGAUAUAGAUUUAGAUACAUGAGGAUCACCCAUGUAUAGAUGUAUUUAGAUUUAGAAGGCGUCUGCA [E5/13-A1] (Eterna round: R97, puzzle: Exclusion 5)”, the “apparent KD of MS2 coat protein” value by setting is: (input ligand: FMN 200 uM) 0.401 µM; (input ligand: none) 0.305 µM.

“CACGAACAUGAGGAUCACCCAUGUAAGGAUAUGGCCAACGACUUAAACUAAAGGUUGGCCAGAAGGUGCGGGUG [Eternabot (L2) Solution 61] (Eterna round: R97, puzzle: Exclusion 1)”: the “apparent KD of MS2 coat protein” value is 0.0525 µM (input ligand: FMN 200 uM) and 0.286 µM (input ligand: none).

As for “GUGGUACAUGAGGAUCACCCAUGUUAGGAUAUCGCGUGAGGUUUUACUUCCACACACACGAGAAGGGACGUCUU (puzzle: Exclusion 1)”, the “apparent KD of MS2 coat protein” value under setting [3] was found to be 0.041 µM.

In the case of “UGCCGUAGAGGAUAUACAUUGAAUAAGAUUCAUGUAAAACUACAUGAGGAUCACCCAUGUAGAAGGCUAUGGCU [JL-ex2-4.37 Eli mod] (Eterna round: R97, puzzle: Exclusion 2)”, the “apparent KD of MS2 coat protein” value reads like this: (input ligand: FMN 200 uM) 0.0386 µM; (input ligand: none) 0.0147 µM.

Turning to “AAGAUGCGGAUAGGAUAUGGAAAAAAAAAAAGACCAGAAGGAUUGGUCAUAUAACAUGAGGAUCACCCAUGUAUAUGUUGUGAA [AK ExNG1-3] (Eterna round: R96, puzzle: Exclusion NG 1)”, the “apparent KD of MS2 coat protein” value was found to be 0.0178 µM (input ligand: FMN 200 uM), 0.0213 µM under setting [1] and 0.0193 µM (input ligand: none).

As for “GACUGGGCAGGAUAUACAUGAGGAUCACCCAUGUGUCUGCGUCAGGCACGUGUAGACGGUAGAAGGGCCUACAC [ChP 13.04.2015 #16] (puzzle: Exclusion 3)”, under setting [3], the “apparent KD of MS2 coat protein” value came out at 0.0119 µM.

Regarding “AACGAUCUAGGAUAUACAUGAGGAUCACCCAUGUAAGAGCCCGAACCGGGCUCCCUCUGUAGAAGGAGGUCAAA [Rileququve] (puzzle: Exclusion 3)”, under setting [3], the “apparent KD of MS2 coat protein” value was found to be 0.0273 µM.

In the case of “CUGCUCCGUGUAGGAUAUCCAUGCAACCAAUAUGGAGAAGGACAUGAGGAUCACCCAUGUAUGUUAUUAUCACGUGAAGCGUCC [Design 23] (Eterna round: R96, puzzle: Exclusion NG 1)”, the “apparent KD of MS2 coat protein” value reads like this: (input ligand: FMN 200 uM) 0.0286 µM; under setting [1], 0.024 µM; (input ligand: none) 0.0312 µM.

For the sequence “CCUCGACAUGAGGAUCACCCAUGUCAGGAUAUUGUGUCUCGGGUUUUUUACCGAUAGGCAAGAAGGGAUGUGUG [LRO-Excl1-13] (puzzle: Exclusion 1)”, under setting [3], the “apparent KD of MS2 coat protein” value was 0.0215 µM.

Regarding “CUCAUGCCUGAGGAUAUGCUGUACAAAAGUACUGCAGAAGGUAGAACAUGAGGAUCACCCAUGUGGCGAAAGCC [Omei Ex G3] (Eterna round: R97, puzzle: Exclusion 6)”, the “apparent KD of MS2 coat protein” value by setting is: (input ligand: FMN 200 uM) 0.171 µM; (input ligand: none) 0.0458 µM.

Take “UUUGCAAGCUUUAGAUCCCACAUGAGGAUCACCCAUGUUGCUGCCGUGAGGUAGCAUUUAACUAAUGCUCGUCUUAU [JL TOV1 3.48] (Eterna round: R97, puzzle: Sensor, turn-off variant 1)”: the “apparent KD of MS2 coat protein” value turned out to be 0.109 µM (input ligand: FMN 200 uM) and 0.169 µM (input ligand: none).

For “GUUUUGAUAGGAUAUACAUGAGGAUCACCCAUGUCCCACCCGUUACCUCUGACCCUAUGUAGAAGGAUCGUUUA [Exy#15] (Eterna round: R97, puzzle: Exclusion 3)”, the “apparent KD of MS2 coat protein” value came out at 0.0275 µM (input ligand: FMN 200 uM) and 0.0372 µM (input ligand: none).

Take “CUAUUCCGAGGAUAUACAUGAGGAUCACCCAUGUCGGGCCUCAGCGUUUAGCGCGUAAGUAGAAGGUGGGUUUC [JL Riri mod 7] (puzzle: Exclusion 3)”: the “apparent KD of MS2 coat protein” value under setting [3] was 0.0274 µM.

Take “UUUCAUCAUGUAGGAUAUGCGUGGCAAAGCUAUGCAGAAGGACAUGAGGAUCACCCAUGUUCUAGCGUCUGCGUACAGAUGCUA [Mat - Exclusion NG 1 - Mod of JL - D73] (Eterna round: R96, puzzle: Exclusion NG 1)”: the “apparent KD of MS2 coat protein” value is, setting by setting: (input ligand: FMN 200 uM) 0.404 µM; under setting [1], 0.0432 µM; (input ligand: none) 0.068 µM.

For “AACCCUCGUGUUAGGAUAUCCAGCGUCCGGGCGAGGGAGAAGGGACAUGAGGAUCACCCAUGUUUCGAUGGACA [Xeinesed] (Eterna round: R97, puzzle: Brourd's mod of Exclusion 4)”, the “apparent KD of MS2 coat protein” value (input ligand: FMN 200 uM) stood at 0.0195 µM and the “apparent KD of MS2 coat protein” value (input ligand: none) was 0.019 µM.

For “GCAGGUUAAGUAAGGAUAUACCUCUGGAAACAGAGGUAGAAGGUACAUGAGGAUCACCCAUGUUUCUCUUUUGC [Mod of Eli 5 - Jieux - Brourd's mod of Exclusion 4] (Eterna round: R97, puzzle: Brourd's mod of Exclusion 4)”, the “apparent KD of MS2 coat protein” value was determined as 0.0248 µM (input ligand: FMN 200 uM) and 0.016 µM (input ligand: none).

Consider “UAUUAGCAAGAAAGAUCCCACAUGAGGAUCACCCAUGUGCUCGUCUUAUAAGGUACUGUGACGAAAGUCACGGUACC [Sensor 3, v1 - 89] (puzzle: Sensor v3, turn-off variant 1)”, for which the “apparent KD of MS2 coat protein” value worked out at 0.0253 µM under setting [2], 0.101 µM under setting [3] and 0.0264 µM under setting [4].

Regarding “AUUAAGCAGCAGGAUAUAAUUAUCUGAAGGUGGUUAGAAGGGCUGACAUGAGGAUCACCCAUGUGCUCUUCGUG [Diries] (puzzle: Exclusion 6)”, under setting [3], the “apparent KD of MS2 coat protein” value was determined as 0.0147 µM.

For “GUAAAGUGAGGAUAUGGUAAAGUAAGUAUGUAGUAAGUAAUCCAGAAGGCACAUGAGGAUCACCCAUGUAAAUG [Mat - Exclusion 4 - D99] (puzzle: Exclusion 4)”, under setting [3], the “apparent KD of MS2 coat protein” value turned out to be 0.0288 µM.

Consider “AUAUGUAACUAGGAUAUCAGCAUACUUCAAUGUUGAGAAGGAGUUACAUGAGGAUCACCCAUGUAUCCAACAUG [Exclusion 6 - 3] (Eterna round: R96, puzzle: Exclusion 6)”, for which the “apparent KD of MS2 coat protein” value stood at 0.0733 µM (input ligand: FMN 200 uM), 0.0567 µM under setting [1] and 0.0671 µM (input ligand: none).

Regarding “CCGGAUAUGCAGGAUAUCGUAUCGGAAACGAUACGAGAAGGGUAUACAUGAGGAUCACCCAUGUGCCUUACCGG [Fiskers Ex 6 - 19] (puzzle: Exclusion 6)”, the “apparent KD of MS2 coat protein” value under setting [3] stood at 0.016 µM.

In the case of “UGUGUACGAGGAUAUAGAUGGAAUGACAUGAGGAUCACCCAUGUGAUCGAUCUAUUGGGUUUAGAAGGUGUAUAUA [JR_Ex5_Sub047] (Eterna round: R97, puzzle: Exclusion 5)”, the “apparent KD of MS2 coat protein” value stood at 0.0277 µM (input ligand: FMN 200 uM) and 0.0344 µM (input ligand: none).

For the sequence “AAGAACGUGCAAGGAUAUCUCCACCAAACCGGCAGAGAAGGUGCACAUGAGGAUCACCCAUGUGACCUAAAGCUCUUAUGAGCC [Raledigeen] (Eterna round: R96, puzzle: Exclusion NG 1)”, the “apparent KD of MS2 coat protein” value runs as follows: (input ligand: FMN 200 uM) 0.0306 µM; under setting [1], 0.0131 µM; (input ligand: none) 0.0173 µM.

On to “GAUCAUGCAGGAUAUACAUGGAACAUGUAAUCAUGAAUUUCACAUGAGGAUCACCCAUGUAGAAGGGCAUGAUC [Omei Ex2 A14] (Eterna round: R97, puzzle: Exclusion 2)”, for which the “apparent KD of MS2 coat protein” value runs as follows: (input ligand: FMN 200 uM) 0.151 µM; (input ligand: none) 2.74 µM.

As to “GCACUGACAGGAUAUACAUGAGGAUCACCCAUGUGACCCUUAUAGUACUCGCGUACAAGUAGAAGGGUCUGUGC [Omei Ex3 Model Bachelor's Dilema v31] (Eterna round: R97, puzzle: Exclusion 3)”, the “apparent KD of MS2 coat protein” value turned out to be 0.382 µM (input ligand: FMN 200 uM) and 0.107 µM (input ligand: none).

With “AAUUGCUAGCCGAUCCUCCACAUGAGGAUCACCCAUGUGCUUGUCUUGUAAUGUACUAUCACGAAAGUGAUAGUACA [Sensor v3, turn-off variant 1 (MOD of Eli's v1-59 v.5)] (puzzle: Sensor v3, turn-off variant 1)”, the “apparent KD of MS2 coat protein” value under setting [2] stood at 0.0447 µM, the “apparent KD of MS2 coat protein” value under setting [3] was 0.0547 µM and the “apparent KD of MS2 coat protein” value under setting [4] turned out to be 0.0432 µM.

Regarding “UUAAUGGCUGUGAGGAUAUCGGAUAGAUAGAUAUUCGAGAAGGUACAUGAGGAUCACCCAUGUGUGAUUAGAGA [Brourd's EX4 #64] (Eterna round: R97, puzzle: Brourd's mod of Exclusion 4)”, the “apparent KD of MS2 coat protein” value is, setting by setting: (input ligand: FMN 200 uM) 0.269 µM; (input ligand: none) 0.244 µM.

With “GGAAUACAUGAGGAUCACCCAUGUAAGGAUAUGCUGAUUAACACGGAAUAAUUAUGCAGCAGAAGGUACAAAGG [Mat - Mod of my Eli Mod D48] (puzzle: Exclusion 1)”, the “apparent KD of MS2 coat protein” value under setting [3] was found to be 0.113 µM.

For “GUCAUGUUAGGAUAUGAGCGGCGACUUAGAAUGUUUGCUACUUAGAAGGAACAUGAGGAUCACCCAUGUUCUAU [EX4 C.14] (Eterna round: R97, puzzle: Exclusion 4)”, the “apparent KD of MS2 coat protein” value (input ligand: FMN 200 uM) is 0.0202 µM and the “apparent KD of MS2 coat protein” value (input ligand: none) stood at 0.0172 µM.
